The target in one experiment is recombinant inhibin A (UniProt P05111). The experiment in a line: cell-based or functional assay.
The target of experiment [1] is HA-tagged endoglin (endoglin-L) (UniProt P17813). Put plainly: patch/FRAP on live COS7 cells; HA-endoglin immobilized by IgG cross-linking, Fab'-labeled myc-ALK1 measured; no inhibin.
For experiment [2] the target is unchanged. Put plainly: patch/FRAP on live COS7 cells; HA-endoglin immobilized by IgG cross-linking, Fab'-labeled myc-ALK1 measured; in the presence of 4 nM inhibin A.
Experiment [3] deals with T1, endoglin on HMEC-1 human microvascular endothelial cells (human) (UniProt P17813).
T1 sequence (looked up): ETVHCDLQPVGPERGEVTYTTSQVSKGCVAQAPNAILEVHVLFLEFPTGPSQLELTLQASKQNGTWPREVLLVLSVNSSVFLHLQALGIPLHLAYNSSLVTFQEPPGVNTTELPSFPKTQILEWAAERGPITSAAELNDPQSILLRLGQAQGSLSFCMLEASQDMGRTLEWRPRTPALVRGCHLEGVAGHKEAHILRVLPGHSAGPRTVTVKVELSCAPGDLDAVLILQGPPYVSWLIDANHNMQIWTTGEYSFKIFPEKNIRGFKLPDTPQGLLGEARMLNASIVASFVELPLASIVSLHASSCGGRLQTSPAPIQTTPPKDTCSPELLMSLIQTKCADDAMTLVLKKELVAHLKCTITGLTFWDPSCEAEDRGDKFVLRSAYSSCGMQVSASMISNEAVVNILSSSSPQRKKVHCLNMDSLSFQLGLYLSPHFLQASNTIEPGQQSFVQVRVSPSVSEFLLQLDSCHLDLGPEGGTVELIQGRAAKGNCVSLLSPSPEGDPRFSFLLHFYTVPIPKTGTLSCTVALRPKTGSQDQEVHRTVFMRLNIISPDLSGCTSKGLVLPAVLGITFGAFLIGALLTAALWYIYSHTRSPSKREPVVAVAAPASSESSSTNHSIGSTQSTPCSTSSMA
The experiment in a line: cell-based or functional assay.

Sequence of UniProt P05111 (P05111 233-366 limits assumed, chain 1 of 2): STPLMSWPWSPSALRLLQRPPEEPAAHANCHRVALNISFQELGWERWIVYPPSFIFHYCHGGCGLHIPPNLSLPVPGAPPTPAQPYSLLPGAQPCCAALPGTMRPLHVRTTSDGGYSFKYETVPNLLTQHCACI
Sequence of UniProt P05111 (P08476 311-426 limits assumed, chain 2 of 2, further chain): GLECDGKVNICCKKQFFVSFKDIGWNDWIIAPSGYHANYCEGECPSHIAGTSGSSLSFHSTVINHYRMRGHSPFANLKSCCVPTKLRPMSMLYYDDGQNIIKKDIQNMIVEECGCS

Regarding “ALK1-Fc, a human chimeric ALK1 protein (from UniProt P37023 22-118) (Fc fusion)”, the fold decrease in inhibin A induced permeability of HMEC-1 monolayer at 4 h (FITC-dextran), 10 ng/mL ALK1-Fc with recombinant inhibin A was 1.5 times.

Take “myc-tagged ALK1 (from UniProt P37023 22-503) (receptor)”: the reduction in Rf (mobile fraction) in experiment [1] is 45%; in experiment [2], 70%.

B1: Tracon 105 (TRC105), a humanized endoglin monoclonal antibody (antibody, INN chains, looked up, V domains shown)
VH: EVKLEESGGGLVQPGGSMKLSCAASGFTFSDAWMDWVRQSPEKGLEWVAEIRSKASNHATYYAESVKGRFTISRDDSKSSVYLQMNSLRAEDTGIYYCTRWRRFFDSWGQGTTLTVSS
VL: QIVLSQSPAILSASPGEKVTMTCRASSSVSYMHWYQQKPGSSPKPWIYATSNLASGVPVRFSGSGSGTSYSLTISRVEAEDAATYYCQQWSSNPLTFGAGTKLELK
In turn, B1 displayed a fold decrease in inhibin A induced permeability of HMEC-1 monolayer at 4 h (FITC-dextran), 100 µg/mL TRC105 in experiment [3] of 2.2 times.

The record behind these values is US20240409627A1.
